Laboratory results published in patent US20240173398A1 (MAX PLANCK GESELLSCHAFT ZUR F RDERUNG DER WISSENSCHAFTEN E V, published 2024).

Biological target: SARS-CoV-2 S1 334-526 N343D (SARS-CoV-2, UniProt P0DTC2 334-526)
Assay: co-secretion from Pichia pastoris; biochemical and structural analysis

B1: VHH antibody Re21D01 (VHH)
VHH: QVQLVESGGALVQPGGSLRLSCVASGFTFSSFAMGWYRQAPGKECEWVATITITGGSTNYADSVKGRFTISRDNAKNTVYLQMNSLKPEDTAVYYCNPDPGCRRGQGTQVTVSS
binding result: binds
